Results taken from patent US11472855, “RNA-binding protein” (Panitch Schwarze Belisario & Nadel LLP).
Changes are numbered by the printed parent chain.

T1: hPUF_MT(R5:A_13R)(R5:A_13Y)2(R6:U_13Y)3
T1 chain: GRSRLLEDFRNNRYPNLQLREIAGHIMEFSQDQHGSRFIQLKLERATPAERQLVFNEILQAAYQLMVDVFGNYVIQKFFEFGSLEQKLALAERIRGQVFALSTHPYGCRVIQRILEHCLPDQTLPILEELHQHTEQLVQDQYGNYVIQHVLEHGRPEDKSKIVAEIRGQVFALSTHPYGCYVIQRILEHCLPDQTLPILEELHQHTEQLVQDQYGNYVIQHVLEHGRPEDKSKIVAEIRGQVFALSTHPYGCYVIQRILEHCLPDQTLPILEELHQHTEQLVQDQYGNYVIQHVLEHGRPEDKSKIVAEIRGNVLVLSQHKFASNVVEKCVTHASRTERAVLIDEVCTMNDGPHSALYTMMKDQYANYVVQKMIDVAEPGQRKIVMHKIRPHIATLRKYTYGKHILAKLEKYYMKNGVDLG

T2: hPUF_MT(1-2-5-6-5-6-5-6-7-8) / (R5:A_13R)3(R6:U_13Y)3
T2 chain: T1 chain with Y181R, Y253R

T3: hPUF_MT(R3→R5, R4→R6)
T3 chain: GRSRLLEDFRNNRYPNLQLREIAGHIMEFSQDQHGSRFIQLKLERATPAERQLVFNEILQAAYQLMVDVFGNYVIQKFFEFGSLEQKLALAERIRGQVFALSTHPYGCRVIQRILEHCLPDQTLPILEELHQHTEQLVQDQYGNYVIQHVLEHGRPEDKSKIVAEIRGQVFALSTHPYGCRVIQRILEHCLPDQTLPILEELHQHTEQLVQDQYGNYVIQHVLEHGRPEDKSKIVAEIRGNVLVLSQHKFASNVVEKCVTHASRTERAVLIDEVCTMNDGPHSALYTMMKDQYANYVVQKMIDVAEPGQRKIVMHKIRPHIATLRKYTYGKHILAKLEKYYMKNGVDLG

T4: hPUF_MT(R8_N12S,Q16R, R3→R5, R4→R6) (R8 repeat N12S,Q16R)
T4 chain: T3 chain with N295S, Q299R

B1: OTS-1844 (ssRNA)
RNA: CCAGAAUUGUAUAUAUAUUCG
B2: OTS-2035 (ssRNA)
RNA: CCAGAAUCGUAUAUAUUCG

How the values were obtained:
Conditions in all cases: label: Alexa680 at 5' and 3'
[1] = target: T1, hPUF_MT(R5:A_13R)(R5:A_13Y)2(R6:U_13Y)3; assay: EMSA; equivalent
[2] = target: T2, hPUF_MT(1-2-5-6-5-6-5-6-7-8) / …; assay: EMSA; Example 2-5 reported comparable to WT
hPUF_MT(R3→R5, R4→R6) = target: T3, hPUF_MT(R3→R5, R4→R6); assay: EMSA; binds U exclusively at R8 position
[3] = target: T4, hPUF_MT(R8_N12S,Q16R, R3→R5, R4→R6); assay: EMSA; C>>G

Binder | binding signal [1] | binding signal [2] | binding result (hPUF_MT(R3→R5, R4→R6)) | binding result [3]
B1 | ~1 fold of 13R protein | ~10 fold of WT | – | –
B2 | – | – | no binding | binds
